Measured values: US9266964
Like-named read-outs stand apart in the source and are kept apart here.

What was measured:
human plasma kallikrein [1] = molecular target: T1, human plasma kallikrein (human, UniProt P03952 20-390; P03952 391-638); assay: cell-based or functional assay
human plasma kallikrein [2] = molecular target: T1, human plasma kallikrein; assay: Ki,app, inhibition of human pKal enzyme activity
human plasma kallikrein [3] = molecular target: T1, human plasma kallikrein; assay: cell-based or functional assay; remark: listed apart in the source
human plasma kallikrein [4] = molecular target: T1, human plasma kallikrein; assay: Ki,app, inhibition of human pKal enzyme activity; remark: listed apart in the source

T1 sequence (P03952 20-390, chain 1 of 2): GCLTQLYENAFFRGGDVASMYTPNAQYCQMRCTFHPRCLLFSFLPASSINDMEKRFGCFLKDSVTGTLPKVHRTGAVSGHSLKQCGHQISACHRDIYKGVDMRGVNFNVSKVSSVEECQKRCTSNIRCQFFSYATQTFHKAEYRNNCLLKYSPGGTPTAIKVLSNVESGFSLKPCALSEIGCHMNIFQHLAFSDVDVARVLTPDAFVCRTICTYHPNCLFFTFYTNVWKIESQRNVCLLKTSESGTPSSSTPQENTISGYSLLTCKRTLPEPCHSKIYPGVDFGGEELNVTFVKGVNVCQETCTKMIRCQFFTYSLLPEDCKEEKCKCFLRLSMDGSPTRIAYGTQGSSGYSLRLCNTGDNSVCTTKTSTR
T1 sequence (P03952 391-638, chain 2 of 2): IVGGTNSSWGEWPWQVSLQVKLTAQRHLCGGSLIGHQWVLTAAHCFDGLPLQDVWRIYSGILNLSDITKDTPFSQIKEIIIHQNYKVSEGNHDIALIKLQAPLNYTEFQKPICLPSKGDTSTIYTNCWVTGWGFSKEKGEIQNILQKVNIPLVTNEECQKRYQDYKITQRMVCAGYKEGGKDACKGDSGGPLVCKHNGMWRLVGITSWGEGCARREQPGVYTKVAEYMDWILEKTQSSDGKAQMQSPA

Binder | % inhibition at 10 nM (human plasma kallikrein [1]) [%] | Ki (human plasma kallikrein [2]) [nM] | % inhibition at 10 nM (human plasma kallikrein [3]) [%] | Ki (human plasma kallikrein [4]) [nM]
M208-H02 (Fab, V domains shown, Tested as Fab; printed HC runs into CH1) VH: EVQLLESGGGLVQPGGSLRLSCAASGFTFSHYLMTWVRQAPGKGLEWVSYISPSGGHTIYADSVKGRFTISRDNSKNTLYLQMNSLRAEDTAVYYCARVARGIASRSRTRYCDYWGQGTLVTVSS VL: DIQMTQSPGTLSLSPGERATLSCRTSQFVNSNYLAWYQQTPGQAPRLLIYGASSRATGIPDRFSGTGYGTDFTLTISRLEPEDYGTYYCQQSSRTPWTFGQGTRVEIK | 94.4 | 0.2 | – | –
M210-H06 (Fab, V domains shown, Tested as Fab; printed HC runs into CH1) VH: EVQLLESGGGLVQPGGSLRLSCAASGFTFSHYLMTWVRQAPGKGLEWVSYISPSGGHTIYADSVKGRFTISRDNSKNTLYLQMNSLRAEDTAVYYCARVARGIAARSRTRYFDYWGQGTLVTVSS VL: DIQMTQSPGTLSLSPGERATLSCRTSQFVNSNYLAWYQQTPGQAPRLLIYGASSRATGIPDRFSGTGYGTDFTLTISRLEPEDYGTYYCQQSSRTPWTFGQGTRVEIK | 93.8 | 0.2 | – | –
M210-H07 (Fab, V domains shown, Tested as Fab; printed HC runs into CH1; amber q written Q) VH: EVQLLESGGGLVQPGGSLRLSCAASGFTFSHYLMTWVRQAPGKGLEWVSYISPSGGHTIYADSVKGRFTISRDNSKNTLYLQMNSLRAEDTAVYYCARVARGIAARSRTRYFDQWGQGTLVTVSS VL: DIQMTQSPGTLSLSPGERATLSCRTSQFVNSNYLAWYQQTPGQAPRLLIYGASSRATGIPDRFSGTGYGTDFTLTISRLEPEDYGTYYCQQSSRTPWTFGQGTRVEIK | 92.8 | 0.4 | – | –
M209-F04 (Fab, V domains shown, Tested as Fab; printed HC runs into CH1; amber q written Q; WSQGTL as printed) VH: EVQLLESGGGLVQPGGSLRLSCAASGFTFSHYLMTWVRQAPGKGLEWVSYISPSGGHTIYADSVKGRFTISRDNSKNTLYLQMNSLRAEDTAVYYCARVARGIAARSRTSYLDQWSQGTLVTVSS VL: DIQMTQSPGTLSLSPGERATLSCRTSQFVNSNYLAWYQQTPGQAPRLLIYGASSRATGIPDRFSGTGYGTDFTLTISRLEPEDYGTYYCQQSSRTPWTFGQGTRVEIK | 97.6 | 0.09 | – | –
M210-G04 (Fab, V domains shown, Tested as Fab; printed HC runs into CH1; amber q written Q) VH: EVQLLESGGGLVQPGGSLRLSCAASGFTFSHYLMTWVRQAPGKGLEWVSYISPSGGHTIYADSVKGRFTISRDNSKNTLYLQMNSLRAEDTAVYYCARVATGIVARSRTRYFDQWGQGTLVTVSS VL: DIQMTQSPGTLSLSPGERATLSCRTSQFVNSNYLAWYQQTPGQAPRLLIYGASSRATGIPDRFSGTGYGTDFTLTISRLEPEDYGTYYCQQSSRTPWTFGQGTRVEIK | 94.2 | 0.3 | – | –
M209-E02 (Fab, V domains shown, Tested as Fab; printed HC runs into CH1; amber q written Q) VH: EVQLLESGGGLVQPGGSLRLSCAASGFTFSHYLMTWVRQAPGKGLEWVSYISPSGGHTIYADSVKGRFTISRDNSKNTLYLQMNSLRAEDTAVYYCARVARGIAARSRTILLDQWGQGTLVTVSS VL: DIQMTQSPGTLSLSPGERATLSCRTSQFVNSNYLAWYQQTPGQAPRLLIYGASSRATGIPDRFSGTGYGTDFTLTISRLEPEDYGTYYCQQSSRTPWTFGQGTRVEIK | 92.4 | 0.3 | – | –
M210-G10 (Fab, V domains shown, Tested as Fab; printed HC runs into CH1) VH: EVQLLESGGGLVQPGGSLRLSCAASGFTFSHYLMTWVRQAPGKGLEWVSYISPSGGHTIYADSVKGRFTISRDNSKNTLYLQMNSLRAEDTAVYYCARVARGIAARSRTSYLDFWGQGTLVTVSS VL: DIQMTQSPGTLSLSPGERATLSCRTSQFVNSNYLAWYQQTPGQAPRLLIYGASSRATGIPDRFSGTGYGTDFTLTISRLEPEDYGTYYCQQSSRTPWTFGQGTRVEIK | 91.2 | 0.4 | – | –
M208-G03 (Fab, V domains shown, Tested as Fab; printed HC runs into CH1) VH: EVQLLESGGGLVQPGGSLRLSCAASGFTFSHYLMTWVRQAPGKGLEWVSYISPSGGHTIYADSVKGRFTISRDNSKNTLYLQMNSLRAEDTAVYYCARVARGIAARSRTSYLDYWGQGTLVTVSS VL: DIQMTQSPGTLSLSPGERATLSCRTSQFVNSNYLAWYQQTPGQAPRLLIYGASSRATGIPDRFSGTGYGTDFTLTISRLEPEDYGTYYCQQSSRTPWTFGQGTRVEIK | 93.4 | 0.3 | – | –
M200-A10 (Fab, V domains shown, Tested as Fab; printed HC runs into CH1) VH: EVQLLESGGGLVQPGGSLRLSCAASGFTFSHYIMMWVRQAPGKGLEWVSGIYSSGGITVYADSVKGRFTISRDNSKNTLYLQMNSLRAEDTAVYYCAYRRTGVPRRDSFDIWGQGTMVTVSS VL: DIQMTQSPSTLSASVGDRVTITCRASQSISSWLAWYQQKPGKAPNLLIYKASTLESGVPSRFSGSGSGTEFTLTISSLQPDDFATYYCQQYNTYWTFGQGTKVEIK | – | – | 94.3 | 0.3
M196-D12 (Fab, V domains shown, Tested as Fab; printed HC runs into CH1) VH: EVQLLESGGGLVQPGGSLRLSCAASGFTFSRYSMRWVRQAPGKGLEWVSVIYPSGGQTYYADSVKGRFTISRDNSKNTLYLQMNSLRAEDTAVYYCAYRRTGIPRRDAFDIWGQGTMVTVSS VL: DIQMTQSPSTLSASVGDRVTITCRASQSISSWLAWYQQKPGKAPNLLIYKASTLESGVPSRFSGSGSGTEFTLTISSLQPDDFATYYCQQYNTYWTFGQGTKVEIK | – | – | 94.1 | 0.2
M197-A09 (Fab, V domains shown, Tested as Fab; printed HC runs into CH1) VH: EVQLLESGGGLVQPGGSLRLSCAASGFTFSVYNMHWVRQAPGKGLEWVSSIYPSGGMTTYADSVKGRFTISRDNSKNTLYLQMNSLRAEDTAVYYCAYRRTGIPRRDAFDIWGQGTMVTVSS VL: DIQMTQSPSTLSASVGDRVTITCRASQSISSWLAWYQQKPGKAPNLLIYKASTLESGVPSRFSGSGSGTEFTLTISSLQPDDFATYYCQQYNTYWTFGQGTKVEIK | – | – | 94.9 | 0.6

Other lines, results leading:

% inhibition at 10 nM (human plasma kallikrein [1]) [%] | Ki (human plasma kallikrein [2]) [nM] | % inhibition at 10 nM (human plasma kallikrein [3]) [%] | Ki (human plasma kallikrein [4]) [nM] | Binder
95.4 | 0.2 | – | – | M208-F04 (Fab, V domains shown, Tested as Fab; printed HC runs into CH1) VH: EVQLLESGGGLVQPGGSLRLSCAASGFTFSHYLMTWVRQAPGKGLEWVSYISPSGGHTIYADSVKGRFTISRDNSKNTLYLQMNSLRAEDTAVYYCARVARGIAARSRTSFFDYWGQGTLVTVSS VL: DIQMTQSPGTLSLSPGERATLSCRTSQFVNSNYLAWYQQTPGQAPRLLIYGASSRATGIPDRFSGTGYGTDFTLTISRLEPEDYGTYYCQQSSRTPWTFGQGTRVEIK
90.9 | 0.2 | – | – | M210-B02 (Fab, V domains shown, Tested as Fab; printed HC runs into CH1; amber q written Q) VH: EVQLLESGGGLVQPGGSLRLSCAASGFTFSHYLMTWVRQAPGKGLEWVSYISPSGGHTIYADSVKGRFTISRDNSKNTLYLQMNSLRAEDTAVYYCASVARGIAARSRTSYFNQWGQGTLVTVSS VL: DIQMTQSPGTLSLSPGERATLSCRTSQFVNSNYLAWYQQTPGQAPRLLIYGASSRATGIPDRFSGTGYGTDFTLTISRLEPEDYGTYYCQQSSRTPWTFGQGTRVEIK
96.2 | 0.14 | – | – | M209-C11 (Fab, V domains shown, Tested as Fab; printed HC runs into CH1; amber q written Q) VH: EVQLLESGGGLVQPGGSLRLSCAASGFTFSHYLMTWVRQAPGKGLEWVSYISPSGGHTIYADSVKGRFTISRDNSKNTLYLQMNSLRAEDTAVYYCAMVGQGIRGRSRTSYFAQWGQGTLVTVSS VL: DIQMTQSPGTLSLSPGERATLSCRTSQFVNSNYLAWYQQTPGQAPRLLIYGASSRATGIPDRFSGTGYGTDFTLTISRLEPEDYGTYYCQQSSRTPWTFGQGTRVEIK
95.6 | 0.16 | – | – | M210-C12 (Fab, V domains shown, Tested as Fab; printed HC runs into CH1; amber q written Q) VH: EVQLLESGGGLVQPGGSLRLSCAASGFTFSHYLMTWVRQAPGKGLEWVSYISPSGGHTIYADSVKGRFTISRDNSKNTLYLQMNSLRAEDTAVYYCARVAQGIAARSRTSSVDQWGQGTLVTVSS VL: DIQMTQSPGTLSLSPGERATLSCRTSQFVNSNYLAWYQQTPGQAPRLLIYGASSRATGIPDRFSGTGYGTDFTLTISRLEPEDYGTYYCQQSSRTPWTFGQGTRVEIK
93.5 | 0.2 | – | – | M209-B09 (Fab, V domains shown, Tested as Fab; printed HC runs into CH1; amber q written Q) VH: EVQLLESGGGLVQPGGSLRLSCAASGFTFSHYLMTWVRQAPGKGLEWVSYISPSGGHTIYADSVKGRFTISRDNSKNTLYLQMNSLRAEDTAVYYCARVAQGIVARSRTSYLHQWGQGTLVTVSS VL: DIQMTQSPGTLSLSPGERATLSCRTSQFVNSNYLAWYQQTPGQAPRLLIYGASSRATGIPDRFSGTGYGTDFTLTISRLEPEDYGTYYCQQSSRTPWTFGQGTRVEIK
– | – | 96.1 | 0.4 | M198-A06 (Fab, V domains shown, Tested as Fab; printed HC runs into CH1) VH: EVQLLESGGGLVQPGGSLRLSCAASGFTFSIYSMHWVRQAPGKGLEWVSSIYSSGGPTKYADSVKGRFTISRDNSKNTLYLQMNSLRAEDTAVYYCAYRRTGIPRRDAFDIWGQGTMVTVSS VL: DIQMTQSPSTLSASVGDRVTITCRASQSISSWLAWYQQKPGKAPNLLIYKASTLESGVPSRFSGSGSGTEFTLTISSLQPDDFATYYCQQYNTYWTFGQGTKVEIK
– | – | 97.2 | 0.1 | M196-C06 (Fab, V domains shown, Tested as Fab; printed HC runs into CH1) VH: EVQLLESGGGLVQPGGSLRLSCAASGFTFSIYSMHWVRQAPGKGLEWVSSIYPSRGMTWYADSVKGRFTISRDNSKNTLYLQMNSLRAEDTAVYYCAYRRTGIPRRDAFDIWGQGTMVTVSS VL: DIQMTQSPSTLSASVGDRVTITCRASQSISSWLAWYQQKPGKAPNLLIYKASTLESGVPSRFSGSGSGTEFTLTISSLQPDDFATYYCQQYNTYWTFGQGTKVEIK
– | – | 63.5 | 0.7 | M198-D12 (Fab, V domains shown, Tested as Fab; printed HC runs into CH1) VH: EVQLLESGGGLVQPGGSLRLSCAASGFTFSLYVMYWVRQAPGKGLEWVSYIVPSGGPTAYADSVKGRFTISRDNSKNTLYLQMNSLRAEDTAVYYCAYRRTGIPRRDAFDIWGQGTMVTVSS VL: DIQMTQSPSTLSASVGDRVTITCRASQSISSWLAWYQQKPGKAPNLLIYKASTLESGVPSRFSGSGSGTEFTLTISSLQPDDFATYYCQQYNTYWTFGQGTKVEIK
– | – | 96.9 | 0.2 | M198-F09 (Fab, V domains shown, Tested as Fab; printed HC runs into CH1) VH: EVQLLESGGGLVQPGGSLRLSCAASGFTFSVYNMHWVRQAPGKGLEWVSSIYPSGGMTYYADSVKGRFTISRDNSKNTLYLQMNSLRAEDTAVYYCAYRRTGIPRRDAFDIWGQGTMVTVSS VL: DIQMTQSPSTLSASVGDRVTITCRASQSISSWLAWYQQKPGKAPNLLIYKASTLESGVPSRFSGSGSGTEFTLTISSLQPDDFATYYCQQYNTYWTFGQGTKVEIK
